Reference: patent publication US20170224780A1 (priority 2014, published 2017)

Legend:
[1] = tested on: marmoset ovarian cortical tissues (grafts); test: Xenotransplantation of frozen-thawed marmoset ovarian cortical strips into castrated SCID mice with rAMH treatment (OTCP-TP model); format: in vivo
Excerpt: Five healthy adult female marmoset monkeys (Callithrix jacchus) at the age range of 13 to 23 months were made available for ovaries excision. Fresh bovine ovaries were collected from lactating milking cows, ages 1.5-3 years (n=12). Ovarian human tissues were harvested from eight donors (age range 13-26 years).
Cortical tissue strips were obtained from marmoset (n=15), bovine (n=15) and human (n=46). The cortical tissue was obtained by removal of the underlying stromal tissue. Slow freezing cryopreservation was performed according to previously published protocols. Briefly, tissue fragments were equilibrated with 0.1M sucrose and 1.5M DMSO for 30 minutes following introduction into the cryopreservation device. A multi-gradient slow freezing protocol cooled the samples to −150° C. following by storage in liquid nitrogen (LN).
Prior to transplantation, tissues were thawed rapidly by equilibrating the samples in decreasing DMSO gradient solutions in 0.1M sucrose and cut into 2×3×2 mm pieces (Marmoset, n=29: n=15 for transplantation experiment and n=14 for transplantation+AMH experiment; Bovine, n=37; Human, n=46). Fresh thawed cortex from each experiment was embedded in […] and further studied.
Seven-weeks-old castrated male immunodeficient mice (n=60) were used as recipient animals. Mice were castrated at 4 weeks and maintained at 28° C. under controlled SPF conditions. Xenotransplantation experiments commenced at least 2-weeks post-orchidectomy.
Ovarian tissue transplantation surgical procedures were performed as described previously. Briefly, a longitudinal incision was made in the dorsum of the anesthetized recipient mouse, the skin was lifted and the ovarian cortical strips were inserted subcutaneously. Size of transplanted tissue from all species was 2×3×2 mm. Each graft was attached in place with a 6-0 non-absorbable prolene suture. Transplanted tissues were recovered after three (3) or seven (7) days.
In a separate experiment, frozen marmoset cortical tissues were thawed, 2×3×2 mm cortical strips were prepared (n=14) and transplanted into castrated SCID mice as described above. rAMH, diluted in PBS, was injected (10 μg in 200 μl, per mouse, i.p.) at the time of transplantation and once daily for 3 consecutive days at 10 μg per mouse, while control mice were injected with PBS. Daily injection protocol was determined according to preliminary experiments using labeled rAMH and rAMH dosage was initially determined according to previous studies.
As the first set of experiments indicated maximal follicle activation and PMF loss in all species (in the absence of AMH) at three days post transplantation, the animals were sacrificed three days post transplantation. The grafts were removed and processed for histological follicle counting analysis and immunohistochemistry.
Recovered grafts and control frozen thawed non transplanted samples were fixed in 4% paraformaldehyde, embedded in paraffin and serial 5 μm sections were prepared from the whole grafts for follicle counts and immunohistochemistry. Follicle classification as primordial or growing was performed on every sixth section of Hematoxylin and Eosin stained sections by two independent observers under a light-microscope (slides/graft: 8 for Marmoset, 9 for Bovine, 6 for Human). Only non-atretic follicles with clearly visible oocyte circled by granulosa-cell layers were referred to in results since no significant difference was found in the number of atretic follicles among the groups. […]

[2] = tested on: ovaries from 12-day-old neonatal mice; format: cell-based
[3] = tested on: ovaries from 12-day-old neonatal mice; test: In-vitro culture of whole ovaries incubated with cisplatin with or without AMH, follicle counting; format: cell-based; details: day 4 and day 7 in culture; results not shown
Procedure: Ovaries from 12-day-old neonatal mice were further incubated with a different chemotherapy agent-cisplatin, with or without AMH. Control ovaries were cultured with medium alone or with AMH. Ovaries were removed after day 4 and day 7 in culture and processed for histological analysis. The number of primordial and growing follicles was counted. Primordial follicle count in the presence of AMH and cisplatin is higher than in the presence of cisplatin alone (results not shown).

B1: rAMH: Anti-mullerian hormone, protein designated by NCBI Accession No. P03971; recombinant AMH (rAMH) (protein, UniProt P03971 452-560, looked up)
Muellerian-inhibiting factor: SAGATAADGPCALRELSVDLRAERSVLIPETYQANNCQGVCGWPQSDRNPRYGNHVVLLLKMQVRGAALARPPCCVPTAYAGKLLISLSEERISAHHVPNMVATECGCR
collagen levels (Sirius red staining) ([1]; grafts three days post transplantation, both transplanted groups had a marked increase vs untransplanted control): no effect | PMF (primordial follicle) count, mean follicle count per section±SE ([1]; marmoset grafts three days post transplantation, rAMH 10 μg per mouse i.p. at transplantation and once daily for 3 days, transplanted control 7.66±6.99, untransplanted control 148±37.06, p<0.001): 56.33±12.12 | additionally saved PMF compared to transplanted control ([1]; marmoset grafts three days post transplantation, rAMH 10 μg per mouse i.p. daily): 86.40% | GF/PMF ratio (growing to primordial follicles) ([1]; transplanted + rAMH group compared to untransplanted control, ratio significantly increased in transplanted control, FIG. 4B): normalized | Ki-67 expressing proliferating cells (immunofluorescence, Z-stack reconstruction) ([1]; transplanted grafts with vs without rAMH administration): Major reduction | numbers of primordial follicles, PM together with AMH relative to PM alone [2]: significantly greater numbers | primordial or growing follicle numbers, AMH alone vs regular media alone [2]: No difference | ratio of growing to dormant follicles, PM+AMH vs PM alone [2]: significantly improved | primordial follicle count, AMH and cisplatin vs cisplatin alone [3]: higher
